In patent US20260364215A1, “Radiopharmaceutical Compositions Targeting Ephrin Type-A Receptor 2 and Uses Thereof” (PeptiDream Inc., priority 2022, published 2026):
Numbered stars: 1 amine (or outer) side, 2 acyl side, 3 side chain; on linkers, the order of the positions; unused ones are H or OH. Bridge positions count the residues as written; N and C are the ends. Square brackets hold non-standard residues; d marks the D form. Side chains are listed from the residue outwards. Peptide text beside a SMILES is read from it. * marks the point of attachment. DOTA = O=C(O)CN1CCN(CC(=O)O)CCN(CC(=O)*)CCN(CC(=O)O)CC1; Trp(1-Me,7-Cl) = Cn1cc(C[C@H](N)C(=O)O)c2cccc(Cl)c21; dPhe(3-CONH2) = NC(=O)c1cccc(C[C@@H](N)C(=O)O)c1; Piperazinyl(4-CH2COOH) = O=C(O)CN1CCN(*)CC1; Trp(1-Me) = Cn1cc(C[C@H](N)C(=O)O)c2ccccc21; PEG8 = NCCOCCOCCOCCOCCOCCOCCOCCOCCC(=O)O; NMe3Pal = CN[C@@H](Cc1cccnc1)C(=O)O; NMeF = CN[C@@H](Cc1ccccc1)C(=O)O; Gly(cBu) = N[C@H](C(=O)O)C1CCC1; NMeE = CN[C@@H](CCC(=O)O)C(=O)O; Aad = N[C@@H](CCCC(=O)O)C(=O)O; AEEA = NCCOCCOCC(=O)O; CO = O=C([*:1])[*:2]; βAla = NCCC(=O)O

What was measured:
[1] = biological target: T1, Recombinant Human EphA2 Fc Protein (Homo sapiens, UniProt P29317); experiment: Interaction analysis (kinetics, KD) of peptides and conjugates against EphA2 by SPR, Biacore T200, single-cycle kinetics (Examples B15 and B22); assay type: binding; conditions: conjugates, Biacore T200 according to Example B15, Table B16; read-out: SPR Kd
T1 construct: purchased Elabscience
T1 sequence (P29317 24-534 limits assumed): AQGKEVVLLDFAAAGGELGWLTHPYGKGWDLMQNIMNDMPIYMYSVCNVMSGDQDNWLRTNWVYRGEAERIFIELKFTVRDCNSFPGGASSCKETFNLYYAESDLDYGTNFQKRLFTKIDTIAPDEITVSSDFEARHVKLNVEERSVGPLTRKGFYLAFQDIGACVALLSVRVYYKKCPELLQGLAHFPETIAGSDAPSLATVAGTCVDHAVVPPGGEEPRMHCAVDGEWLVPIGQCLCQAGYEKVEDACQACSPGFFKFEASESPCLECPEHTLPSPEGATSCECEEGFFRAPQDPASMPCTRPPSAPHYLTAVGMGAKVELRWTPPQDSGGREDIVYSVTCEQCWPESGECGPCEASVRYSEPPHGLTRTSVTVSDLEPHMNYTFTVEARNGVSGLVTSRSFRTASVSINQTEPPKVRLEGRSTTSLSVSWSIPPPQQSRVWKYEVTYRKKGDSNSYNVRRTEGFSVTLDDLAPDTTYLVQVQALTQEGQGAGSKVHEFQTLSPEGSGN
Method in brief: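 Biacore T200 SPR with Fc-tagged human EphA2 captured via anti-human antibody; running buffer HBS-P+ pH 7.4 with 1% DMSO, 25 °C. Five serial dilutions of peptide or conjugate run by single-cycle kinetics; KD from ka and kd after baseline subtraction.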

[2] = Plasma stability (% remaining of test compound in CD-1 (ICR) mouse plasma at 37 °C; Example C1); assay type: in vitro ADME
Procedure: Example C1. Plasma Stability
The pooled frozen CD-1 (ICR) mouse plasma was thawed in a water bath at 37 °C prior to experiment. Plasma was centrifuged at 4000 rpm for 5 min and the clots were removed if any. pH was adjusted to 7.4±0.1 if required.
Plasma (98 μL) and test compounds (2 μL, 100 μM, in DMSO) or reference compound propantheline bromide (2 μL, 100 μM in 40% v/v MeOH/H2O) were added to the individual wells of a 96-well microtiter plate in duplicate. The plate was incubated at 37 °C. During the incubation, aliquots were withdrawn at 0, 10, 30, 60, 120, and 300 minutes. 100 μL 4% H3PO4 and 800 μL of stop solution (200 ng/mL tolbutamide and 200 ng/mL labetalol in 100% CH3CN) were added to precipitate unwanted proteins. After mixing thoroughly, the quenched aliquots were centrifuged at 4,000 rpm for 20 min. Aliquots (100 μL) of supernatant were transferred to a new plate. The samples were shaken at 800 rpm for 10 min before performing LC-MS/MS analysis.
The analytes were detected by a multiple reaction monitoring method using a SCIEX Triple Quad 6500+ system equipped with an ACQUITY UPLC HSS T3 column (100 Å, 1.8 μm, 2.1 mm×30 mm). Mobile phase A: water with 0.1% formic acid; Mobile phase B: CH3CN with 0.1% formic acid.
(§1) The % remaining of test compound after incubation in plasma was calculated using the following equation:
(§2) % Remaining=100×(PAR(t)/PAR(t0)), where PAR is the peak area ratio of analyte versus internal standard (IS)

[3] = Plasma stability (% remaining and T1/2 of test compound in human plasma; Table C1); assay type: in vitro ADME
Procedure: as §1, §2

CC(C)C[C@@H]1NC(=O)[C@H](CC(N)=O)NC(=O)[C@H](Cc2ccccc2)N(C)C(=O)[C@@H](C)NC(=O)CSC[C@@H](C(=O)NCCC(=O)N[C@H](CCCCNC(=O)COCCOCCNC(=O)CCOCCOCCOCCOCCOCCOCCOCCOCCNC(=O)CN2CCN(CC(=O)O)CCN(CC(=O)O)CCN(CC(=O)O)CC2)C(N)=O)NC(=O)[C@H](CCC(=O)O)NC(=O)[C@H]([C@@H](C)O)NC(=O)[C@H](Cc2cn(C)c3ccccc23)NC(=O)[C@H](C(C)C)NC(=O)[C@H](Cc2cn(C)c3ccccc23)NC(=O)[C@H](Cc2ccccc2)N(C)C(=O)[C@H](CCCC(=O)O)NC1=O.[Lu+3] [PDC_EphA2-00001417-C306] ({CH2CO}-[dA][NMeF]NL[Aad][NMeF][Trp(1-Me)]V[Trp(1-Me)]TEC[βAla][dK]([AEEA-PEG8-DOTA])-NH2; thioether N-12)
Kd [1]: 1 to 10 nM | % Remaining Mouse ([2]; 0 min): 100% | remaining at 2 h, 2 µM ([2]; pH 7.4, 120 min): 91% | half-life at 2 µM ([2]; pH 7.4, read-out: T1/2 (min) Mouse): > 289 min | half-life [3]: > 4.82 h | % Remaining Human ([3]; 0 min): 100% | remaining at 2 h ([3]; 120 min): 99%

C[C@@H](O)[C@@H]1NC(=O)[C@H](Cc2cn(C)c3ccccc23)NC(=O)[C@H](CCCCNC(=O)N2CCN(CC(=O)O)CC2)NC(=O)[C@H](Cc2cn(C)c3c(Cl)cccc23)NC(=O)[C@H](CCC(=O)O)N(C)C(=O)[C@H](CCCCNC(=O)CN2CCN(CC(=O)O)CCN(CC(=O)O)CCN(CC(=O)O)CC2)NC(=O)[C@H](C2CCC2)NC(=O)[C@H](CC(N)=O)NC(=O)[C@H](Cc2cccnc2)N(C)C(=O)[C@@H](Cc2cccc(C(N)=O)c2)NC(=O)CSC[C@@H](C(=O)N[C@H](CCC(=O)O)C(=O)O)NC(=O)[C@H](CCCC(N)=O)NC1=O.[Lu+3] [PDC_EphA2-00027104] ({CH2CO}-[dPhe(3-CONH2)][NMe3Pal]N[Gly(cBu)]K(DOTA)[NMeE][Trp(1-Me,7-Cl)]K([CO-Piperazinyl(4-CH2COOH)])[Trp(1-Me)]T[Aad](NH2)C[dE]-OH; thioether N-12)
Kd [1]: < 1 nM

C[C@H]1NC(=O)CSC[C@@H](C(=O)N[C@H](CCC(=O)O)C(N)=O)NC(=O)[C@H](CCCC(N)=O)NC(=O)[C@H]([C@@H](C)O)NC(=O)[C@H](Cc2cn(C)c3ccccc23)NC(=O)[C@H](CCCCNC(=O)N2CCN(CC(=O)O)CC2)NC(=O)[C@H](Cc2cn(C)c3c(Cl)cccc23)NC(=O)[C@H](CCC(=O)O)N(C)C(=O)[C@H](CCCCNC(=O)CN2CCN(CC(=O)O)CCN(CC(=O)O)CCN(CC(=O)O)CC2)NC(=O)[C@H](C2CCC2)NC(=O)[C@H](CC(N)=O)NC(=O)[C@H](Cc2cccnc2)N(C)C1=O.[Lu+3] [PDC_EphA2-00027105] ({CH2CO}-[dA][NMe3Pal]N[Gly(cBu)]K(DOTA)[NMeE][Trp(1-Me,7-Cl)]K([CO-Piperazinyl(4-CH2COOH)])[Trp(1-Me)]T[Aad](NH2)C[dE]-NH2; thioether N-12)
Kd [1]: < 1 nM

C[C@@H](O)[C@@H]1NC(=O)[C@H](Cc2cn(C)c3ccccc23)NC(=O)[C@H](CCCCNC(=O)N2CCN(CC(=O)O)CC2)NC(=O)[C@H](Cc2cn(C)c3c(Cl)cccc23)NC(=O)[C@H](CCC(=O)O)N(C)C(=O)[C@H](CCCCNC(=O)CN2CCN(CC(=O)O)CCN(CC(=O)O)CCN(CC(=O)O)CC2)NC(=O)[C@H](C2CCC2)NC(=O)[C@H](CC(N)=O)NC(=O)[C@H](Cc2cccnc2)N(C)C(=O)[C@@H](Cc2cccc(C(N)=O)c2)NC(=O)CSC[C@@H](C(=O)N[C@H](CCC(=O)O)C(N)=O)NC(=O)[C@H](CCCC(N)=O)NC1=O.[Lu+3] [PDC_EphA2-00027106] ({CH2CO}-[dPhe(3-CONH2)][NMe3Pal]N[Gly(cBu)]K(DOTA)[NMeE][Trp(1-Me,7-Cl)]K([CO-Piperazinyl(4-CH2COOH)])[Trp(1-Me)]T[Aad](NH2)C[dE]-NH2; thioether N-12)
Kd [1]: < 1 nM

C[C@H]1NC(=O)CSC[C@@H](C(=O)N[C@H](CCC(=O)O)C(N)=O)NC(=O)[C@H](CCCC(N)=O)NC(=O)[C@H]([C@@H](C)O)NC(=O)[C@H](Cc2cn(C)c3ccccc23)NC(=O)[C@H](CCCCNC(=O)N2CCN(CC(=O)O)CC2)NC(=O)[C@H](Cc2cn(C)c3c(Cl)cccc23)NC(=O)[C@H](CCC(=O)O)N(C)C(=O)[C@H](CCCCNC(=O)[C@@H](CCC(=O)O)NC(=O)CN2CCN(CC(=O)O)CCN(CC(=O)O)CCN(CC(=O)O)CC2)NC(=O)[C@H](C2CCC2)NC(=O)[C@H](CC(N)=O)NC(=O)[C@H](Cc2cccnc2)N(C)C1=O.[Lu+3] [PDC_EphA2-00027126] ({CH2CO}-[dA][NMe3Pal]N[Gly(cBu)]K([dE-DOTA])[NMeE][Trp(1-Me,7-Cl)]K([CO-Piperazinyl(4-CH2COOH)])[Trp(1-Me)]T[Aad](NH2)C[dE]-NH2; thioether N-12)
Kd [1]: < 1 nM
